Assay results taken from article doi:10.1101/2022.05.11.22274678 (2022).

Tests used:
[1] = target: T1, transketolase (TKT) from Clostridium leptum, TKT peptide 8 peptide on HLA-DQA1*05:01 / HLA-DQB1*03:02 (human); experiment: activation reporter or marker
T1 peptide: GHSVEALYCILADRG

[2] = target: T2, insulin B chain peptide on HLA-DQA1*05:01 / HLA-DQB1*03:02 (human); experiment: activation reporter or marker
T2 peptide: SHLVEALYLVCGERG

B1: GSE.166H9 (TCR)
alpha TRAV3 TRAJ21 CDR3: CAVMYNFNKFYF
beta TRBV12-3 TRBJ2-5 CDR3: CASSLGGRETQYF
binding result [1]: recognises | binding result [2]: recognises
